Measured values as given in the supplement of paper PMC12764529.
± gives the half width of the 95% confidence interval.

experiment: folding stability dG unfold (combined trypsin and chymotrypsin); higher = more stable
Protocol: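 Folding stability of de novo designed mini-proteins (<80 aa, no Cys; designed by TrROS, TrMRF, ProteinMPNN and the joint model) was measured by cDNA display proteolysis with trypsin and chymotrypsin. Each protease was used at 11 concentrations in a threefold dilution series plus a no-protease condition. K50 was inferred by Bayesian fitting of sequencing counts, and dG unfold was derived against a sequence-predicted unfolded-state K50 (Tsuboyama et al. method). Sequences shown include variable-length N-terminal GS-type padding (SAGGSAGG...) inside a display construct carrying a PA tag. Rows were kept only if the AF2 dimer inter-PAE was >15, to exclude likely homo-oligomers.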

“GEVLVAKIELKVKKKLPEKPEEVEEKLELEFVAPIDNPEALEKAEEIAKKLAEEIGATEVKIKVEPYILPES [r1_346_TrMRF]” and “GMILFKVKLTDPKGKKEIAEVDIPIPVPEEVLPAMPEELKEKLREEAEKAAEEIREKLGNVLVEPEFTLLES [r1_115_JUSTAS]” cannot be ordered by “folding stability dG unfold” value: < -1 kcal/mol for the first, < -1 kcal/mol for the second.

First: MKVLKTETKPIPGSGKIEVRVEYEVDGFFDPATGKPYSPDYLVTEKKTITVPPDSDDEIVTSSITFHPNLKS [r1_147_JUSTAS]
Second: PEPGAVETRETDYIDPNNNNKYKATITTTRDPNSDLATVNTTIKLPNGETLNYSATINPNPGTVTSTTSISS [r1_144_JUSTAS]
The “folding stability dG unfold” value of the first is lower: < -1 kcal/mol for the first, -0.628 ± 0.48 kcal/mol for the second.

“SAALGPEKAEELAEALARELAEKAGVEKVEAKVEPLPDERWVAEIYFPPVGKKARVVFEKDKPRLVEVGSAG [r14_925_TrMRF]” and “SAGDALKEAAKNGKPAELPIRFHFYQIKEPERDKDGGPRYKMKPIHTVEFPIRVDKVDPGNGDIKIDMPSAG [r5_5_TrROS]” cannot be ordered by “folding stability dG unfold” value: < -1 kcal/mol for the first, < -1 kcal/mol for the second.

“SAGDRKVIHINGFEPEQFRKIIREAKDKGPPGDRIWIPSPEYVDELKELDPNLPVEVHNMDNGEWQEIESAG [r5_391_TrROS]” and “SAGFDFPEDFTPIARDGVNSLWQGDGPVLLALRGPEGGSAVLPFKPGNPEEIFPLIEALAAGGVVDPSFSAG [r14_12_TrMRF]” cannot be ordered by “folding stability dG unfold” value: < -1 kcal/mol for the first, < -1 kcal/mol for the second.

“SAGGAMTPDGTSVTIPYEAKTPTGEASEEEARERIEEELAARPDVALTRVEFEREGDRIKATVYTRVPRSAG [r5_688_JUSTAS]” and “SAGGDIEVEPTDNMPQVEIRDPEGKERKIVMPPNPNGQYNIQVHNPDDGKKKTFPVRSVDDALEWLKSAGGS [r8_230_TrROS]” cannot be ordered by “folding stability dG unfold” value: < -1 kcal/mol for the first, < -1 kcal/mol for the second.

“SAGGDKIQEKLQKEGGFRPTNTEVNGGKPKIHIHWPNPERRKKLKEKLKKDPGIEEVQIQPMDPEDMSAGGS [r16_671_TrROS]” and “SAGGDNRQEREFHIPDPDGEDINITMEYNPSNGRTRVKVQPPEDGKPIKEIPADEMPPEAQDILKKISAGGS [r8_32_TrROS]” cannot be ordered by “folding stability dG unfold” value: < -1 kcal/mol for the first, < -1 kcal/mol for the second.

“SAGGDWLDNFPPGWKIKLERPNGKPKTYTIPPNSSPDDLKKLKLPNGYKLKIDEVTPNGQMTFRLPPSAGGS [r16_103_TrROS]” and “SAGGDYVSITIDDPNPGMPPEELAQEIIRELNPDGFPIKPKKIEPERHDGRPKVTITFRVDDPEAIKKSAGG [r13_979_TrROS]” cannot be ordered by “folding stability dG unfold” value: < -1 kcal/mol for the first, < -1 kcal/mol for the second.

“SAGGEDIIKELLDQLPPGDKNAVLEFDPPDGKLEPKEPSPGGYMFEPKNPENGEKWTFVIRDDKIEPVSAGG [r13_803_TrROS]” and “SAGGEISIMFKSPEGVKEIAEELEENGLEVDVSPVPGYWMVRIQPKPKPPPTPEAAEKAQRDPDQANKSAGG [r13_8_TrROS]” cannot be ordered by “folding stability dG unfold” value: < -1 kcal/mol for the first, < -1 kcal/mol for the second.

“SAGGFNLKIMPMRMPRRKYDPEDGEPKKPEPVKMWMIQVEAKPGQTVSEIADELQKEFPGDNIMVMPSAGGS [r8_30_TrROS]” and “SAGGFPISIERWDPDGKKRRREIPMDDPDEIKEFLDDLPPDRPVRIHMPNPQHFNALKNAGFDEVEMMSAGG [r13_476_TrROS]” cannot be ordered by “folding stability dG unfold” value: < -1 kcal/mol for the first, < -1 kcal/mol for the second.

“SAGGFYRLKIYNPDNGQPIEFPINWDEVEEAIKNGDLDELAEHYPGAPIDKIEVEPVKPVPPVPPDEKSAGG [r13_629_TrROS]” and “SAGGGMEIVTTKESTLPEDVKVKESTTTFPDGTSIKTVTLTSPKPGDTKTITIPVKPGGPGLSTTVTESAGG [r13_323_JUSTAS]” cannot be ordered by “folding stability dG unfold” value: < -1 kcal/mol for the first, < -1 kcal/mol for the second.

“SAGGGMRPVPVSEIIAKLKEEGYTVSKVSVYRPGSGEKLGTYDPNTPVVIPADEPDAVIEPVVEPKGSAGGS [r8_243_JUSTAS]” and “SAGGGPPLRVSTESEVYEDPETGVTYVRRRIHVEGGLVVEEELKETVNPEDPGAEVTLVSRRESPALSAGGS [r8_241_JUSTAS]” cannot be ordered by “folding stability dG unfold” value: < -1 kcal/mol for the first, < -1 kcal/mol for the second.

“SAGGIKELADEGAEIKDVTWPVRFPDGNPMRITEIKPTDGGLDIRFEPPNDGREQEHPIPPDNIEPLPSAGG [r13_340_TrROS]” and “SAGGIKPGQQWRIRSPNGPIPIRVRGGQIKIRNNDNGKKRTYPVPGDTIEEIVDDLRDHPGMEIEPLSAGGS [r16_583_TrROS]” cannot be ordered by “folding stability dG unfold” value: < -1 kcal/mol for the first, < -1 kcal/mol for the second.

“SAGGIRIRPGQKIEDIEFEVEKNPDGEPPIKVKIRWPDKGKPHTYTMTPGQDVGNFADKNGWPIEVVSAGGS [r16_676_TrROS]” and “SAGGITLKEIREALKKGHMMRIEGPDGGKRRIPIDDLKDMPGIKPGMPLEDLKVRKIEWVPPDDGQPMSAGG [r13_587_TrROS]” cannot be ordered by “folding stability dG unfold” value: < -1 kcal/mol for the first, < -1 kcal/mol for the second.

“SAGGIWIDNPDQILDQIKENPNQPRTIQVPMDPDNGQIPPDIKKALKEPGMPVQHDPNGYMTFKIPPSAGGS [r16_335_TrROS]” and “SAGGKELVEKLLAEGGVKPVKIETKEGKPKIEVLAPKPELGKKLVEKLKKDPRIEEVNIKPYKPEELSAGGS [r16_671_TrMRF]” cannot be ordered by “folding stability dG unfold” value: < -1 kcal/mol for the first, < -1 kcal/mol for the second.

“SAGGKITIEMPEDGMYRITIRNPNKGEPVSEIPIPANQIQELAKENGEPMPIEDIVRKLGYPIEIERYSAGG [r13_836_TrROS]” and “SAGGMEEKVINIPLSNGEEATITITIENEPGKNKAIVPINSKSVPAEELAKKLKKELPESITDLTVVKSAGG [r13_404_JUSTAS]” cannot be ordered by “folding stability dG unfold” value: < -1 kcal/mol for the first, < -1 kcal/mol for the second.

“SAGGMIIDDPDALLDAIKENPNTPLVFLVPTDPATGTVDPAVIDAVVEPGFPVERDPDGYVRFIFPKSAGGS [r16_335_TrMRF]” and “SAGGMKAKIIPFTVAGGAYEPETGELKKPVPVKVTLIEVEPEPDVKVEEIAEEFEKAFPGKGVIVAPSAGGS [r8_30_TrMRF]” cannot be ordered by “folding stability dG unfold” value: < -1 kcal/mol for the first, < -1 kcal/mol for the second.

“SAGGMPLEKIKEIKLVKEKEDGEKEILIVVEDPELVKEGNVEEVKKLAEALAEELKKKGIKVKIEVKPSAGG [r13_243_TrROS_Hall]” and “SAGGMPPGQKKTITLEMNEPGYFRIHNPNGGQEREFPINPDQSPSEFLDWAEDFAEDYGYPVEIEWHSAGGS [r16_446_TrROS]” cannot be ordered by “folding stability dG unfold” value: < -1 kcal/mol for the first, < -1 kcal/mol for the second.

“SAGGMSPNQKVTIEIDNWHPGPGGNYFNVRIRNPGNGKPREINGPGDNPEDMKKEIEELVKAGPIEIYSAGG [r13_286_TrROS]” and “SAGGMTKTYDPNGRTITELPDGTVVETTVDPSKPLTKVTTTTVEGDNVVSSTEILQEVSLPETSPYLSAGGS [r8_142_JUSTAS]” cannot be ordered by “folding stability dG unfold” value: < -1 kcal/mol for the first, < -1 kcal/mol for the second.

“SAGGMTLESEVTTLPDGTVVTKTTTVYPDGTVTTKTTTTSVPAGPPTVVRTLPDGSRVRDPTGEWTALSAGG [r13_151_JUSTAS]” and “SAGGMVVITTDDPDDLERLAEAVEELKRALAEAGATEPGVKVDVVIEKRPTPDGTLRYVAPVFVGLPSAGGS [r16_591_TrMRF]” cannot be ordered by “folding stability dG unfold” value: < -1 kcal/mol for the first, < -1 kcal/mol for the second.

“SAGGNLKIEMGDNPHEIPVDPNQVDTPEEAIEEVADQIRNRFPQFGPFRVRVETEGGKEIAMINIKPKSAGG [r13_257_TrROS]” and “SAGGPGPPPLEPVVVPVDDGVAVFTRSPDGSLHVEIGPRSGPVVASATAPLPEDSELTVDAVVLPEELSAGG [r13_584_TrMRF]” cannot be ordered by “folding stability dG unfold” value: < -1 kcal/mol for the first, < -1 kcal/mol for the second.

“SAGGPKIDVEKEKSPERGRRKIEIRWPGSGQEMDIFLPDDDPDKIAKALQNAPFGSFHEAIREALRDSAGGS [r8_484_TrROS]” and “SAGGPMREYTIKLPGKKITINEMPNPNGNEMTQVSVRDGGEPKRPVNMPNDNADEFAKKPGIKPDDIVSAGG [r13_108_TrROS]” cannot be ordered by “folding stability dG unfold” value: < -1 kcal/mol for the first, < -1 kcal/mol for the second.

“SAGGPVSEEIVTEKKTLEEDPKNGNTYSEIIMKTPNETIKVKGVKHPSGSTTYTVYTPNSKIATVNVSSAGG [r13_146_JUSTAS]” and “SAGGSAEPKPGVKAILFNENGEPIKEVSENEEILLPNGTPTKVYRLPDNSSIATHPDGYVALFVEGSAGGSA [r15_845_TrMRF]” cannot be ordered by “folding stability dG unfold” value: < -1 kcal/mol for the first, < -1 kcal/mol for the second.

“SAGGSAGEKTLKIVIEGKDKEKVVKEAKPLLEKLFGAKEIKVKVEPLPDGGYKVPIEITVPPGAAKSAGGSA [r15_173_TrMRF]” and “SAGGSAGGAVRVDDSEIGPDRAAPLPGNRSLEVRPDSVTVTTTDPSTNTPTTTTLPYSEVERLLSAGGSAGG [r6_942_JUSTAS]” cannot be ordered by “folding stability dG unfold” value: < -1 kcal/mol for the first, < -1 kcal/mol for the second.

“SAGGSAGGDYKLEPDDIEPMPDGWYQVEIEIEQRDPDGEPETRDIPVWMPPGQTAKDMAKWLIKSAGGSAGG [r6_329_TrROS]” and “SAGGSAGGGMMKTITITESVVLEVRPVTSENGRVYPEVLSEVLKTTTVPFPPGNEEEIEKAIKESAGGSAGG [r6_738_JUSTAS]” cannot be ordered by “folding stability dG unfold” value: < -1 kcal/mol for the first, < -1 kcal/mol for the second.

“SAGGSAGGGNTPRPRPRSVVTKLNVSPDTVPPEELKAKHPDIEVSYSPNSLTARVPVNGELVESSAGGSAGG [r6_739_JUSTAS]” and “SAGGSAGGIKIDPNIKEITWHQNPNGMFYHTIKVDEGKKVAPVRFPPDQPPEQMWDNAKEALKESAGGSAGG [r6_436_TrROS]” cannot be ordered by “folding stability dG unfold” value: < -1 kcal/mol for the first, < -1 kcal/mol for the second.

“SAGGSAGGITVTIDMNEGYYRIKVEYPGNGKKREIPISGPPDDLASELEDEFGYPVKDVEIEKWSAGGSAGG [r6_763_TrROS]” and “SAGGSAGGKPIVFKGKHDGKEMIFPIELNPENGQIKITPMNGKELRIPPNKPPKIVEVDPNDFESAGGSAGG [r6_174_TrROS]” cannot be ordered by “folding stability dG unfold” value: < -1 kcal/mol for the first, < -1 kcal/mol for the second.

For “SAGGSAGGMDEKLYITTAEVTVKEDGAPVPSTMTFKSKEEIEKYVKETFPPENVELKITTYPELSAGGSAGG [r6_114_JUSTAS]”, the “folding stability dG unfold” value was < -1 kcal/mol.
